Legend:
[1] = tested on: HLA-A2.1/K^b transgenic mice; test: IFN-γ intracellular cytokine staining, CD8+ T cells; assay type: in vivo; settings: mice immunized with MTA1(1–283); splenocytes restimulated with peptide pool; T2 cells pulsed with each peptide; vs PBS, P < 0.001
Description: (§1) To test the effects of protein, each HLA-A2.1/K^b transgenic mouse was injected subcutaneously at the base of the tail with 100 μg MTA1(1–283) or the same volume of PBS emulsified in IFA twice on days 0 and 7. On day 14, spleen lymphocytes were harvested and stimulated by peptide pool (10 μg/ml) in vitro for another 6 days. LDH, IFN-γ ELISPOT, and IFN-γ intracellular cytokine staining assays were performed on day 6 after the in vitro stimulation. E/T ratios used in the LDH assay were 12.5 : 1, 25 : 1, and 50 : 1.
(§2) To test the protein MTA1(1–283) stimulation of CTL response in vivo, IFN-γ release of induced CTLs was determined by the intracellular cytokine staining assay according to our former study. In brief, on day 14, spleen lymphocytes were harvested and stimulated by peptide pool (10 μg/ml) in vitro for another 6 days. Then, restimulated splenocytes were incubated with peptide-loaded T2 cells or T2 cells only for 3 h. Subsequently, protein transport inhibitor cocktail was added to splenocytes for another 4 h. Then, those cells were stained with Anti-mouse CD3 PerCP-eFluor® 710 (clone: 17A2, eBioscience) and Anti-mouse CD8α PE (clone: 53–6.7, eBioscience) at 4°C for 30 min. […] Those cells were washed twice by permeabilization buffer and analyzed by flow cytometry.

[2] = tested on: PBMCs from HLA-A*02+ healthy donors; test: IFN-γ ELISPOT of CTLs induced in vitro; assay type: cell-based, human; settings: PBMCs stimulated with MTA1(1–283) once a week for 21 days; stimulators T2 cells with peptide pool 50 μg/ml; n = 4
Description: (§3) CTL induction in vitro was conducted according to the procedures previously described. Briefly, PBMCs from eight HLA-A^∗02^+ healthy donors were isolated using Ficoll-Paque density gradient centrifugation and resuspended in RPMI 1640 medium supplemented with 10% FBS. Then, PBMCs were stimulated three times (once a week) with the indicated peptides (10 μg/ml) or protein MTA1(1–283) (at final concentrations of 0, 1, 10, 30, and 50 μg/ml) for 21 days. Human recombinant cytokine interleukin-2 (IL-2) (50 U/ml) was added on day 3 and 1 day after each stimulation. The cytotoxic assay (lactate dehydrogenase (LDH) assay) and IFN-γ secretion enzyme-linked immunospot (ELISPOT) assay were performed on day 21.
The ELISPOT assay was performed using a commercial kit (Dakewe, China) according to the procedures previously described. Briefly, T2 cells incubated with/without candidate peptide (50 μg/ml) were used as the stimulating cells, effector cells (1 × 10^5) and stimulator cells (peptide-pulsed T2 cells or T2 cells only, 1 × 10^5) were seeded into the 96-well plate precoated with an anti-human (or anti-mouse) IFN-γ antibody. After incubation at 37°C for 18 h, cells were removed, and plates were processed for analysis as instructed. The spot number was determined automatically using a computer-assisted spot analyzer (Dakewe, China).

[3] = tested on: SW620 cells (HLA-A2+, MTA1+); test: LDH cytotoxicity assay, CTLs induced in HLA-A2.1/Kb transgenic mice; assay type: in vivo, human; settings: mice immunized with MTA1(1–283) days 0 and 7; E/T 50 : 1 and 25 : 1; significant vs PBS
Description: In vivo induction of peptide-specific CTLs was performed as previously described. Briefly, peptide (100 μg) and the IA^b-restricted HBV-core128 T helper epitope (140 μg) emulsified in incomplete Freund's adjuvant (IFA) were used to subcutaneously immunize at the base of the tail of HLA-A2.1/K^b transgenic mice three times on days 0, 5, and 10. On day 11, all mice were sacrificed through cervical dislocation. Spleen lymphocytes were isolated and restimulated once with 10 μg/ml peptide and 10 U/ml mIL-2 in vitro for an additional 6 days. LDH and IFN-γ ELISPOT assays were performed on day 6 after in vitro stimulation. […]
as §1
(§4) Cytotoxic activity of induced T cells was tested based on the quantitation of LDH release using the nonradioactive cytotoxicity assay kit (Promega, USA) at the gradient E/T ratio [29, 31]. Target cells which expressed different levels of MTA1 or peptide-pulsed T2 cells were used as target cells. The anti-human HLA-A2 antibody (BB7.2) was added 30 min before adding effector cells to determine the HLA restriction. Target cells (5 × 10^3/well) were cocultured with the effector cells at 37°C for 4 h. The percentage of specific lysis of the target cells was determined using the equation: percentage of specific lysis = [(experimental release − effector spontaneous release − target spontaneous release)/(target maximum release − target spontaneous release)] × 100.

[4] = tested on: HLA-A2.1/K^b transgenic mice; test: Serum IFN-γ ELISA after immunization; assay type: in vivo; settings: mice immunized with 100 μg/ml MTA1(1–283) in IFA days 0 and 7; serum day 14; vs PBS, P < 0.001; n = 5
SW620 (HLA-A2+, MTA1+) = test: LDH cytotoxicity assay, CTLs induced in vitro; assay type: cell-based, human; settings: PBMCs induced by 50 μg/ml MTA1(1–283); E/T 50 : 1; LDH assay; n = 4
Description: as §3, §4

[5] = tested on: HLA-A2.1/K^b transgenic mice; test: IFN-γ intracellular cytokine staining, CD4+ T cells; assay type: in vivo; settings: mice immunized with MTA1(1–283); CD3+CD8− subset
Description: as §1, §2

B1: MTA1(1–283): recombinant fragment of MTA1, first 283 amino acids, expressed in E. coli from pET28a, containing the predominant epitopes (protein, UniProt Q13330 1-283, looked up, fragment)
chain: MAANMYRVGDYVYFENSSSNPYLIRRIEELNKTANGNVEAKVVCFYRRRDISSTLIALADKHATLSVCYKAGPGADNGEEGEIEEEMENPEMVDLPEKLKHQLRHRELFLSRQLESLPATHIRGKCSVTLLNETESLKSYLEREDFFFYSLVYDPQQKTLLADKGEIRVGNRYQADITDLLKEGEEDGRDQSRLETQVWEAHNPLTDKQIDQFLVVARSVGTFARALDCSSSVRQPSLHMSAAAASRDITLFHAMDTLHKNIYDISKAISALVPQGGPVLCRD
percentage of IFN-γ+ CD8+ T cells [1]: a higher percentage of IFN-γ ^+ CD8^+ T cells compared with the PBS group
IFN-γ secretion of protein-induced CTLs, ELISPOT [2]: can secrete IFN-γ
lysis of SW620 tumor cells by T cells induced in vivo by protein [3]: could kill SW620 tumor cells
IFN-γ secretion in vivo (serum IFN-γ, ELISA) [4]: secreted more IFN-γ compared with the PBS control group
rate of lysis of SW620 cells by protein-induced CTLs (SW620 (HLA-A2+, MTA1+)): 50.01%
percentage of IFN-γ+ CD4+ T cells [5]: a certain percentage of IFN-γ ^+ CD4^+ T cells

Reference: article PMC6286779, “HLA-A2-Restricted Epitopes Identified from MTA1 Could Elicit Antigen-Specific Cytotoxic T Lymphocyte Response” (Journal of Immunology Research, 2018)
